The record followed here is patent US20100260668A1 (published 2010).

The Kd is the free concentration of one partner at which half of the binding sites on the other are occupied at equilibrium, for simple one-to-one binding. One may read the koff as a measure of how fast the partners let go of each other. A higher koff goes with a short-lived complex. A word on the kon: it is the second-order rate constant of association.

Assay [1] deals with T1, VEGF (UniProt P15692-4 27-191).
T1 construct: Bought reagent; also called vascular endothelial growth factor
The assay can be described thus: BIACORE SPR. Background: In SPR one partner is held on a chip, and binding of the other changes the refractive index at the surface.
T1 sequence (P15692 other isoform, or with tags, fused parts or gaps limits assumed): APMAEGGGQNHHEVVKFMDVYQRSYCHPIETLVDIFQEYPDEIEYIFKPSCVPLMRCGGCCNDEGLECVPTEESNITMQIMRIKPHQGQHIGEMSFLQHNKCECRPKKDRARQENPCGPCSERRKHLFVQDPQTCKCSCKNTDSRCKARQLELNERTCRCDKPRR

Assay [2] has as its target T2, VEGF (UniProt P15692-4 27-191).
T2 construct: Bought reagent; also called vascular endothelial growth factor
The assay can be described thus: SPR (Biacore), DVD-Ig captured, VEGF in solution.
T2 sequence (P15692 other isoform, or with tags, fused parts or gaps limits assumed): as above

B1: DVD043 (bispecific antibody, human IgG1, kappa)
heavy: not shown
light: DIQMTQSPSSLSASVGDRVTITCSASQDISNYLNWYQQKPGKAPKVLIYFTSSLHSGVPSRFSGSGSGTDFTLTISSLQPEDFATYYCQQYSTVPWTFGQGTKVEIKRTVAAPDIQMTQSPSSLSASVGDRVTITCRASQDVSTAVAWYQQKPGKAPKLLIYSASFLYSGVPSRFSGSGSGTDFTLTISSLQPEDFATTYYCQQSYTGTVTFGQGTKVEIKRTVAAPSVFIFPPSDEQLKSGTASVVCLLNNFYPREAKVQWKVDNALQSGNSQESVTEQDSKDSTYSLSSTLTLSKADYEKHKVYACEVTHQGLSSPVTKSFNRGEC
notes: DVD-Ig; N-term; AB014 (VEGF), C-term; AB015 (DLL4); HC linker short, LC linker short; also called DVD043H; DVD043L
For B1, in the assay with VEGF [1], the affinity, expressed as Kd, was 0.0746 nM; the koff worked out at 0.000125 s⁻¹; the kon was determined as 1.68e+06 M⁻¹ s⁻¹.

B2: DVD476 (bispecific antibody, human IgG1, kappa)
heavy: not shown
light: DIQMTQSPSSLSASVGDRVTITCSASQDISNYLNWYQQKPGKAPKVLIYFTSSLHSGVPSRFSGSGSGTDFTLTISSLQPEDFATYYCQQYSTVPWTFGQGTKVEIKRTVAAPDIQMTQSPSSLSASVGDRVTITCRASQDVSTAVAWYQQKPGKAPKLLIYSASFLYSGVPSRFSGSGSGTDFTLTISSLQPEDFATTYYCQQSYTGTVTFGQGTKVEIKRTVAAPSVFIFPPSDEQLKSGTASVVCLLNNFYPREAKVQWKVDNALQSGNSQESVTEQDSKDSTYSLSSTLTLSKADYEKHKVYACEVTHQGLSSPVTKSFNRGEC
notes: DVD-Ig; N-term; AB014 (VEGF), C-term; AB015 (DLL4); HC linker long, LC linker short; also called DVD476H; DVD476L
In the assay with VEGF [1], B2 came in with a dissociation constant Kd of 0.0281 nM, a koff of 4.74e-05 s⁻¹ and an on-rate (kon) of 1.69e+06 M⁻¹ s⁻¹.

B3: DVD490 (bispecific antibody, human IgG1, kappa)
heavy: not shown
light: DIQMTQSPSSLSASVGDRVTITCRASQDVSTAVAWYQQKPGKAPKLLIYSASFLYSGVPSRFSGSGSGTDFTLTISSLQPEDFATYYCQQSYTTPPTFGQGTKVEIKRTVAAPDIQMTQSSSYLSVSLGGRVTITCKASDHINNWLAWYQQKPGNAPRLLISGATSLETGVPSRFSGSGSGKDYTLSITSLQTEDVATYYCQQYWSIPLTFGAGTKLELKRTVAAPSVFIFPPSDEQLKSGTASVVCLLNNFYPREAKVQWKVDNALQSGNSQESVTEQDSKDSTYSLSSTLTLSKADYEKHKVYACEVTHQGLSSPVTKSFNRGEC
notes: DVD-Ig; N-term; VD AB070 (VEGF), C-term; VD AB072 (DLL4); HC linker short, LC linker short; also called DVD490H; DVD490L
As to B3, in the assay with VEGF [2], the Kd was 0.189 nM, the koff stood at 0.000169 s⁻¹ and the kon came out at 894000 M⁻¹ s⁻¹.

B4: DVD502 (bispecific antibody, human IgG1, kappa)
heavy: not shown
light: DIQMTQSPSSLSASVGDRVTITCRASQDVSTAVAWYQQKPGKAPKLLIYSASFLYSGVPSRFSGSGSGTDFTLTISSLQPEDFATYYCQQSYTTPPTFGQGTKVEIKRTVAAPDIQMTQSSSYLSVSLGGRVTITCKASDHINNWLAWYQQKPGNAPRLLISGATSLETGVPSRFSGSGSGKDYTLSITSLQTEDVATYYCQQYWSIPLTFGAGTKLELKRTVAAPSVFIFPPSDEQLKSGTASVVCLLNNFYPREAKVQWKVDNALQSGNSQESVTEQDSKDSTYSLSSTLTLSKADYEKHKVYACEVTHQGLSSPVTKSFNRGEC
notes: DVD-Ig; N-term; VD AB070 (VEGF), C-term; VD AB072 (DLL4); HC linker long, LC linker short; also called DVD502H; DVD502L
As for B4, in the assay with VEGF [2], the Kd stood at 0.265 nM, the koff turned out to be 0.000231 s⁻¹ and the kon amounted to 871000 M⁻¹ s⁻¹.

B5: DVD520 (bispecific antibody, human IgG1, kappa, lambda)
heavy: not shown
light: DIQMTQSPSSLSASVGDRVTITCRASQDVSTAVAWYQQKPGKAPKLLIYSASFLYSGVPSRFSGSGSGTDFTLTISSLQPEDFATYYCQQSYTTPPTFGQGTKVEIKRTVAAPSVFIFPPQAVVTQESALTTSPGETVTLTCRSSTGAVTTSNYANWVQEKPDHLFTGLIGGTNNRAPGVPARFSGSLIGDKAALTITGAQTEDEAIYFCALWYSNHWVFGGGTKLTVLGQPKAAPSVTLFPPSSEELQANKATLVCLISDFYPGAVTVAWKADSSPVKAGVETTTPSKQSNNKYAASSYLSLTPEQWKSHRSYSCQVTHEGSTVEKTVAPTECS
notes: DVD-Ig; N-term; VD AB070 (VEGF), C-term; VD AB073 (DLL4); HC linker long, LC linker long; also called DVD520H; DVD520L
Regarding B5, in the assay with VEGF [2], the dissociation constant (Kd) came out at 0.817 nM, the koff came out at 0.000961 s⁻¹ and the association rate constant (kon) was 1.18e+06 M⁻¹ s⁻¹.

B6: DVD532 (bispecific antibody, human IgG1, kappa, lambda)
heavy: not shown
light: DIQMTQSPSSLSASVGDRVTITCRASQDVSTAVAWYQQKPGKAPKLLIYSASFLYSGVPSRFSGSGSGTDFTLTISSLQPEDFATYYCQQSYTTPPTFGQGTKVEIKRTVAAPSVFIFPPQAVVTQESALTTSPGETVTLTCRSSTGAVTTSNYANWVQEKPDHLFTGLIGGTNNRAPGVPARFSGSLIGDKAALTITGAQTEDEAIYFCALWYSNHWVFGGGTKLTVLGQPKAAPSVTLFPPSSEELQANKATLVCLISDFYPGAVTVAWKADSSPVKAGVETTTPSKQSNNKYAASSYLSLTPEQWKSHRSYSCQVTHEGSTVEKTVAPTECS
notes: DVD-Ig; N-term; VD AB070 (VEGF), C-term; VD AB073 (DLL4); HC linker short, LC linker long; also called DVD532H; DVD532L
Turning to B6, in the assay with VEGF [2], the Kd was found to be 0.276 nM, the koff came out at 0.0123 s⁻¹ and the kon was 4.47e+07 M⁻¹ s⁻¹.

B7: DVD514 (bispecific antibody, human IgG1, lambda)
heavy: not shown
light: DIQMTQSPSSLSASVGDRVTITCRASQDVSTAVAWYQQKPGKAPKLLIYSASFLYSGVPSRFSGSGSGTDFTLTISSLQPEDFATYYCQQSYTTPPTFGQGTKVEIKRTVAAPQAVVTQESALTTSPGETVTLTCRSSTGAVTTSNYANWVQEKPDHLFTGLIGGTNNRAPGVPARFSGSLIGDKAALTITGAQTEDEAIYFCALWYSNHWVFGGGTKLTVLGQPKAAPSVTLFPPSSEELQANKATLVCLISDFYPGAVTVAWKADSSPVKAGVETTTPSKQSNNKYAASSYLSLTPEQWKSHRSYSCQVTHEGSTVEKTVAPTECS
notes: DVD-Ig; N-term; VD AB070 (VEGF), C-term; VD AB073 (DLL4); HC linker short, LC linker short; also called DVD514H; DVD514L
Consider B7, for which, in the assay with VEGF [2], the Kd is 1.01 nM, the koff was determined as 0.000549 s⁻¹ and the kon amounted to 541000 M⁻¹ s⁻¹.
